In the experiment the target is T1, T7-DHX34 (wild-type) (human, UniProt Q14147 1-1143).
T1 construct: Human DHX34, wild type; also called T7-tagged DHX34; shRNA-resistant (R) wild-type T7-DHX34; source: HEK293T, transiently transfected, in lysate; also purified on T7 agarose beads
T1 sequence (looked up): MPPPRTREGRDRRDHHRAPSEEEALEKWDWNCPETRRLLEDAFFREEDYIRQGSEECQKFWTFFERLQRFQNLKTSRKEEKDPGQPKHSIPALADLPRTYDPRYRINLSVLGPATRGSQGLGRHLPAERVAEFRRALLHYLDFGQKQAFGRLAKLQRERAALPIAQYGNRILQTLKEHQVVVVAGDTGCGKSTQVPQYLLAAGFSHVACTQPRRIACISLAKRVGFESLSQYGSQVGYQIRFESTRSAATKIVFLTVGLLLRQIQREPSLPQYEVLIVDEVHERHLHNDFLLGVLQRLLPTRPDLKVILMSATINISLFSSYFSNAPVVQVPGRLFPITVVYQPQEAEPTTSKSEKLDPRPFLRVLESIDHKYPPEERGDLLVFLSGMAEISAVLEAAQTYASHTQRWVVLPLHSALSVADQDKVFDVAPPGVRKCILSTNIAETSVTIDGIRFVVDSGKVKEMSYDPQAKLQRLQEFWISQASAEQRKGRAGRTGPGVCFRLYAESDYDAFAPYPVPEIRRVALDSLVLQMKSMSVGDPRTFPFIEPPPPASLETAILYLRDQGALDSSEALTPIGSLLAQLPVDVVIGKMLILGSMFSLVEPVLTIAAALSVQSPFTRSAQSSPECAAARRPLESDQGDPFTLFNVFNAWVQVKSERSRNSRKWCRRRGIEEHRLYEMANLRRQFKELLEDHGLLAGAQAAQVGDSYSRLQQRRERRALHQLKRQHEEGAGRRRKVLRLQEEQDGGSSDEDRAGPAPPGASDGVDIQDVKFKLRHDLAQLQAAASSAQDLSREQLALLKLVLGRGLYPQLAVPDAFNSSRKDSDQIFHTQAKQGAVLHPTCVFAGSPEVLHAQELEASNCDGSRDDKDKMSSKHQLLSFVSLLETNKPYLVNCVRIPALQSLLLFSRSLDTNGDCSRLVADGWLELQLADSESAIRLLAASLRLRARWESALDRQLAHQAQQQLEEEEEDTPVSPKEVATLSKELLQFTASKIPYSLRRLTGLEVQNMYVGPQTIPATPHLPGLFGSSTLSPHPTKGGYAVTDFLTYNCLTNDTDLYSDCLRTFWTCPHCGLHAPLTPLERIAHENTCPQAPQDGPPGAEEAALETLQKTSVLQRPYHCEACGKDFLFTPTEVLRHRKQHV
In words: pull-down; purified T7-DHX34 (wild-type or deletion constructs) on T7 agarose beads incubated with recombinant UPF1, UPF2, UPF3b or purified full-length FLAG-UPF1 in buffer D for 2 hr at 4°C. To be noted: both partners purified.

B1: FLAG-UPF1 (wild-type) (natural protein, human, UniProt Q92900-2 1-1118, looked up)
chain: MSVEAYGPSSQTLTFLDTEEAELLGADTQGSEFEFTDFTLPSQTQTPPGGPGGPGGGGAGGPGGAGAGAAAGQLDAQVGPEGILQNGAVDDSVAKTSQLLAELNFEEDEEDTYYTKDLPIHACSYCGIHDPACVVYCNTSKKWFCNGRGNTSGSHIVNHLVRAKCKEVTLHKDGPLGETVLECYNCGCRNVFLLGFIPAKADSVVVLLCRQPCASQSSLKDINWDSSQWQPLIQDRCFLSWLVKIPSEQEQLRARQITAQQINKLEELWKENPSATLEDLEKPGVDEEPQHVLLRYEDAYQYQNIFGPLVKLEADYDKKLKESQTQDNITVRWDLGLNKKRIAYFTLPKTDSDMRLMQGDEICLRYKGDLAPLWKGIGHVIKVPDNYGDEIAIELRSSVGAPVEVTHNFQVDFVWKSTSFDRMQSALKTFAVDETSVSGYIYHKLLGHEVEDVIIKCQLPKRFTAQGLPDLNHSQVYAVKTVLQRPLSLIQGPPGTGKTVTSATIVYHLARQGNGPVLVCAPSNIAVDQLTEKIHQTGLKVVRLCAKSREAIDSPVSFLALHNQIRNMDSMPELQKLQQLKDETGELSSADEKRYRALKRTAERELLMNADVICCTCVGAGDPRLAKMQFRSILIDESTQATEPECMVPVVLGAKQLILVGDHCQLGPVVMCKKAAKAGLSQSLFERLVVLGIRPIRLQVQYRMHPALSAFPSNIFYEGSLQNGVTAADRVKKGFDFQWPQPDKPMFFYVTQGQEEIASSGTSYLNRTEAANVEKITTKLLKAGAKPDQIGIITPYEGQRSYLVQYMQFSGSLHTKLYQEVEIASVDAFQGREKDFIILSCVRANEHQGIGFLNDPRRLNVALTRARYGVIIVGNPKALSKQPLWNHLLNYYKEQKVLVEGPLNNLRESLMQFSKPRKLVNTINPGARFMTTAMYDAREAIIPGSVYDRSSQGRPSSMYFQTHDQIGMISAGPSHVAAMNIPIPFNLVMPPMPPPGYFGQANGPAAGRGTPKGKTGRGGRQKNRFGLPGPSQTNLPNSQASQDVASQPFSQGALTQGYISMSQPSQMSQPGLSQPELSQDSYLGDEFKSQIDVALSQDSTYQGERAYQHGGVTGLSQY
notes: UPF1, human, full length; Plasmid named pcDNA3 x FLAG-UPF1 in the methods; also called purified full-length FLAG-UPF1; source: HEK293T, transiently transfected, in lysate
Consider B1, for which the binding result is “binds”.

These data come from PMC4534575, “The RNA Helicase DHX34 Activates NMD by Promoting a Transition from the Surveillance to the Decay-Inducing Complex” (Cell Reports, 2014).
